Laboratory results from paper PMC3156286 (Journal of molecular biology, 2011).

Biological target: the molecule itself
Experiment: SEC

B1: full length Nhp2p (natural protein, S. cerevisiae, UniProt P32495 1-156, looked up)
chain: MGKDNKEHKESKESKTVDNYEARMPAVLPFAKPLASKKLNKKVLKTVKKASKAKNVKRGVKEVVKALRKGEKGLVVIAGDISPADVISHIPVLCEDHSVPYIFIPSKQDLGAAGATKRPTSVVFIVPGSNKKKDGKNKEEEYKESFNEVVKEVQAL
  stoichiometry N: 2
